Experimental data from the Human Domainome abundance scans (Beltran et al. 2025).
± gives the uncertainty stated by the source.

B1: Histidine--tRNA ligase, cytoplasmic, residues 8 to 45; numbered along this chain, P12081 (parent)
chain: EELVKLQGERVRGLKQQKASAELIEEEVAKLLKLKAQL

Variants of: B1
Experiment: abundance fitness (aPCA) (normalised: wild type 0, dead -1); higher = more abundant; growth selection in yeast, the domain comes from the species named
Details: Homo sapiens

Variant	abundance fitness
EELVKLQGERVRGLKQQKASAELIEEEVAHLLKLKAQL [K30H]	-0.247 ± 0.097
EELVKLQGERVRGLKQQKASAELIEEEVAILLKLKAQL [K30I]	-0.232 ± 0.098
EELVKLQGERVRGLKQQKASAELIEEEVALLLKLKAQL [K30L]	-0.211 ± 0.076
EELVKLQGERVRGLKQQKASAELIEEEVAMLLKLKAQL [K30M]	-0.234 ± 0.13
EELVKLQGERVRGLKQQKASAELIEEEVANLLKLKAQL [K30N]	-0.119 ± 0.084
EELVKLQGERVRGLKQQKASAELIEEEVAPLLKLKAQL [K30P]	-0.219 ± 0.074
EELVKLQGERVRGLKQQKASAELIEEEVAQLLKLKAQL [K30Q]	-0.102 ± 0.12
EELVKLQGERVRGLKQQKASAELIEEEVARLLKLKAQL [K30R]	-0.204 ± 0.079
EELVKLQGERVRGLKQQKASAELIEEEVASLLKLKAQL [K30S]	-0.218 ± 0.069
EELVKLQGERVRGLKQQKASAELIEEEVATLLKLKAQL [K30T]	-0.246 ± 0.078
EELVKLQGERVRGLKQQKASAELIEEEVAVLLKLKAQL [K30V]	-0.136 ± 0.094
EELVKLQGERVRGLKQQKASAELIEEEVAWLLKLKAQL [K30W]	-0.639 ± 0.12
EELVKLQGERVRGLKQQKASAELIEEEVAYLLKLKAQL [K30Y]	-0.484 ± 0.11
EELVKLQGERVRGLKQQKASAELIEEEVAKALKLKAQL [L31A]	-0.084 ± 0.1
EELVKLQGERVRGLKQQKASAELIEEEVAKCLKLKAQL [L31C]	-0.187 ± 0.097
EELVKLQGERVRGLKQQKASAELIEEEVAKDLKLKAQL [L31D]	0.222 ± 0.094
EELVKLQGERVRGLKQQKASAELIEEEVAKELKLKAQL [L31E]	0.257 ± 0.09
EELVKLQGERVRGLKQQKASAELIEEEVAKFLKLKAQL [L31F]	-0.397 ± 0.084
EELVKLQGERVRGLKQQKASAELIEEEVAKGLKLKAQL [L31G]	-0.044 ± 0.093
EELVKLQGERVRGLKQQKASAELIEEEVAKHLKLKAQL [L31H]	-0.144 ± 0.11
EELVKLQGERVRGLKQQKASAELIEEEVAKILKLKAQL [L31I]	-0.426 ± 0.087
EELVKLQGERVRGLKQQKASAELIEEEVAKKLKLKAQL [L31K]	0.002 ± 0.098

Variant	abundance fitness
EELVKLQGERVRGLKQQKASAELIEEEVAKMLKLKAQL [L31M]	-0.338 ± 0.12
EELVKLQGERVRGLKQQKASAELIEEEVAKNLKLKAQL [L31N]	0.22 ± 0.11
EELVKLQGERVRGLKQQKASAELIEEEVAKPLKLKAQL [L31P]	0.123 ± 0.088
EELVKLQGERVRGLKQQKASAELIEEEVAKQLKLKAQL [L31Q]	0.087 ± 0.12
EELVKLQGERVRGLKQQKASAELIEEEVAKRLKLKAQL [L31R]	-0.126 ± 0.07
EELVKLQGERVRGLKQQKASAELIEEEVAKSLKLKAQL [L31S]	0.026 ± 0.076
EELVKLQGERVRGLKQQKASAELIEEEVAKTLKLKAQL [L31T]	-0.058 ± 0.093
EELVKLQGERVRGLKQQKASAELIEEEVAKVLKLKAQL [L31V]	-0.436 ± 0.073
EELVKLQGERVRGLKQQKASAELIEEEVAKWLKLKAQL [L31W]	-0.172 ± 0.093
EELVKLQGERVRGLKQQKASAELIEEEVAKYLKLKAQL [L31Y]	-0.199 ± 0.1
EELVKLQGERVRGLKQQKASAELIEEEVAKLAKLKAQL [L32A]	0.227 ± 0.089
EELVKLQGERVRGLKQQKASAELIEEEVAKLCKLKAQL [L32C]	0.116 ± 0.096
EELVKLQGERVRGLKQQKASAELIEEEVAKLDKLKAQL [L32D]	0.174 ± 0.1
EELVKLQGERVRGLKQQKASAELIEEEVAKLFKLKAQL [L32F]	-0.289 ± 0.076
EELVKLQGERVRGLKQQKASAELIEEEVAKLGKLKAQL [L32G]	0.121 ± 0.091
EELVKLQGERVRGLKQQKASAELIEEEVAKLHKLKAQL [L32H]	0.08 ± 0.087
EELVKLQGERVRGLKQQKASAELIEEEVAKLIKLKAQL [L32I]	-0.093 ± 0.1
EELVKLQGERVRGLKQQKASAELIEEEVAKLKKLKAQL [L32K]	0.105 ± 0.11
EELVKLQGERVRGLKQQKASAELIEEEVAKLMKLKAQL [L32M]	0.206 ± 0.087
EELVKLQGERVRGLKQQKASAELIEEEVAKLNKLKAQL [L32N]	0.247 ± 0.091
EELVKLQGERVRGLKQQKASAELIEEEVAKLPKLKAQL [L32P]	0.098 ± 0.11
EELVKLQGERVRGLKQQKASAELIEEEVAKLQKLKAQL [L32Q]	0.201 ± 0.095

Variant	abundance fitness
EELVKLQGERVRGLKQQKASAELIEEEVAKLRKLKAQL [L32R]	0.096 ± 0.079
EELVKLQGERVRGLKQQKASAELIEEEVAKLSKLKAQL [L32S]	0.112 ± 0.09
EELVKLQGERVRGLKQQKASAELIEEEVAKLTKLKAQL [L32T]	0.117 ± 0.13
EELVKLQGERVRGLKQQKASAELIEEEVAKLVKLKAQL [L32V]	-0.076 ± 0.083
EELVKLQGERVRGLKQQKASAELIEEEVAKLWKLKAQL [L32W]	-0.098 ± 0.1
EELVKLQGERVRGLKQQKASAELIEEEVAKLLALKAQL [K33A]	-0.081 ± 0.11
EELVKLQGERVRGLKQQKASAELIEEEVAKLLCLKAQL [K33C]	-0.451 ± 0.093
EELVKLQGERVRGLKQQKASAELIEEEVAKLLELKAQL [K33E]	0.226 ± 0.13
EELVKLQGERVRGLKQQKASAELIEEEVAKLLFLKAQL [K33F]	-0.338 ± 0.11
EELVKLQGERVRGLKQQKASAELIEEEVAKLLGLKAQL [K33G]	-0.147 ± 0.089
EELVKLQGERVRGLKQQKASAELIEEEVAKLLHLKAQL [K33H]	-0.039 ± 0.084
EELVKLQGERVRGLKQQKASAELIEEEVAKLLILKAQL [K33I]	-0.407 ± 0.14
EELVKLQGERVRGLKQQKASAELIEEEVAKLLLLKAQL [K33L]	-0.34 ± 0.083
EELVKLQGERVRGLKQQKASAELIEEEVAKLLNLKAQL [K33N]	-0.203 ± 0.26
EELVKLQGERVRGLKQQKASAELIEEEVAKLLPLKAQL [K33P]	-0.056 ± 0.097
EELVKLQGERVRGLKQQKASAELIEEEVAKLLQLKAQL [K33Q]	0.037 ± 0.1
EELVKLQGERVRGLKQQKASAELIEEEVAKLLRLKAQL [K33R]	-0.109 ± 0.075
EELVKLQGERVRGLKQQKASAELIEEEVAKLLSLKAQL [K33S]	0.071 ± 0.074
EELVKLQGERVRGLKQQKASAELIEEEVAKLLTLKAQL [K33T]	-0.093 ± 0.095
EELVKLQGERVRGLKQQKASAELIEEEVAKLLVLKAQL [K33V]	-0.436 ± 0.083
EELVKLQGERVRGLKQQKASAELIEEEVAKLLYLKAQL [K33Y]	-0.313 ± 0.1
EELVKLQGERVRGLKQQKASAELIEEEVAKLLKAKAQL [L34A]	-0.054 ± 0.094
